Test results reported in the supplement of paper PMC9112550, “Optimization of the antimicrobial peptide Bac7 by deep mutational scanning” (BMC Biology, 2022).

The sequences below were run on Escherichia coli TOP10 (assay: shrunken log2 fold change of peptide-encoding DNA abundance (4.5 h post-induction vs induction); higher = less antimicrobial activity (less host growth inhibition)). Conditions: time post-induction: 4.5 h; library: site-saturation at positions 5, 18, 19, 20.
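Note: peptides expressed intracellularly from a pBAD plasmid library in pooled LB shake-flask culture, induced with 0.3% L-arabinose, DNA abundance read by NGS, three biological replicates, DESeq2 with apeglm shrinkage.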

In order of rising “shrunken log2 fold change” value:
1. RRIRYRPPRLPRPRPRPQYTPRP  -1.34
2. RRIRSRPPRLPRPRPRPFNHPRP  -1.19
3. RRIRCRPPRLPRPRPRPFIPPRP  -0.976
4. RRIRQRPPRLPRPRPRPNDHPRP  -0.884
5. RRIRVRPPRLPRPRPRPFCMPRP  -0.537
6. RRIRLRPPRLPRPRPRPRHNPRP  -0.521
7. RRIRERPPRLPRPRPRPNYPPRP  -0.509
8. RRIRQRPPRLPRPRPRPSCMPRP  -0.508
9. RRIRARPPRLPRPRPRPYLFPRP  -0.494
10. RRIRFRPPRLPRPRPRPSWHPRP  -0.475
11. RRIRVRPPRLPRPRPRPYIQPRP  -0.472
12. RRIRVRPPRLPRPRPRPINFPRP  -0.458
13. RRIRCRPPRLPRPRPRPNMQPRP  -0.423
14. RRIRYRPPRLPRPRPRPDSPPRP  -0.391
15. RRIRDRPPRLPRPRPRPCWNPRP  -0.389
16. RRIRDRPPRLPRPRPRPNWIPRP  -0.389
17. RRIRYRPPRLPRPRPRPMMNPRP  -0.367
18. RRIRPRPPRLPRPRPRPFFNPRP  -0.365
19. RRIRPRPPRLPRPRPRPLNEPRP  -0.348
20. RRIRHRPPRLPRPRPRPVAYPRP  -0.332
21. RRIRIRPPRLPRPRPRPMLYPRP  -0.33
22. RRIRSRPPRLPRPRPRPLVIPRP  -0.281
23. RRIRIRPPRLPRPRPRPNTMPRP  -0.264
24. RRIRERPPRLPRPRPRPNGSPRP  -0.263
25. RRIRTRPPRLPRPRPRPLKCPRP  -0.249
26. RRIRDRPPRLPRPRPRPFKIPRP  -0.249
27. RRIRSRPPRLPRPRPRPSQSPRP  -0.242
28. RRIRERPPRLPRPRPRPLSAPRP  -0.229
29. RRIRHRPPRLPRPRPRPSTPPRP  -0.225
30. RRIRYRPPRLPRPRPRPDTHPRP  -0.22
31. RRIRWRPPRLPRPRPRPSNPPRP  -0.218
32. RRIRHRPPRLPRPRPRPPIYPRP  -0.204
33. RRIRVRPPRLPRPRPRPKNAPRP  -0.197
34. RRIRVRPPRLPRPRPRPSDLPRP  -0.196
35. RRIRDRPPRLPRPRPRPKYYPRP  -0.193
36. RRIRERPPRLPRPRPRPHSAPRP  -0.179
37. RRIRLRPPRLPRPRPRPVPLPRP  -0.174
38. RRIRLRPPRLPRPRPRPCTPPRP  -0.172
39. RRIRWRPPRLPRPRPRPYNTPRP  -0.162
40. RRIRTRPPRLPRPRPRPQANPRP  -0.156
41. RRIRIRPPRLPRPRPRPMHDPRP  -0.152
42. RRIRKRPPRLPRPRPRPHRDPRP  -0.136
43. RRIRERPPRLPRPRPRPYQTPRP  -0.135
44. RRIRWRPPRLPRPRPRPWVMPRP  -0.129
45. RRIRVRPPRLPRPRPRPQPNPRP  -0.125
46. RRIRTRPPRLPRPRPRPDFTPRP  -0.0888
47. RRIRDRPPRLPRPRPRPILQPRP  -0.0838
48. RRIRNRPPRLPRPRPRPIAMPRP  -0.0835
49. RRIRGRPPRLPRPRPRPCKDPRP  -0.0805
50. RRIRRRPPRLPRPRPRPYASPRP  -0.0782
51. RRIRARPPRLPRPRPRPSLKPRP  -0.0764
52. RRIRARPPRLPRPRPRPWTSPRP  -0.064
53. RRIRIRPPRLPRPRPRPQAFPRP  -0.0625
54. RRIRSRPPRLPRPRPRPGYIPRP  -0.0571
55. RRIRKRPPRLPRPRPRPDPYPRP  -0.0561
56. RRIRSRPPRLPRPRPRPSMGPRP  -0.0521
57. RRIRVRPPRLPRPRPRPRKLPRP  -0.0444
58. RRIRERPPRLPRPRPRPHEMPRP  -0.039
59. RRIRSRPPRLPRPRPRPNCRPRP  -0.0318
60. RRIRDRPPRLPRPRPRPQGEPRP  -0.0304
61. RRIRLRPPRLPRPRPRPKRMPRP  -0.029
62. RRIRFRPPRLPRPRPRPSRKPRP  -0.0267
63. RRIRLRPPRLPRPRPRPDFEPRP  -0.0246
64. RRIRWRPPRLPRPRPRPEKMPRP  -0.0237
65. RRIRARPPRLPRPRPRPQCTPRP  -0.0222
66. RRIRYRPPRLPRPRPRPRQEPRP  -0.0183
67. RRIRNRPPRLPRPRPRPAWQPRP  -0.0152
68. RRIRMRPPRLPRPRPRPHSYPRP  -0.0152
69. RRIRYRPPRLPRPRPRPQVQPRP  -0.0106
70. RRIRIRPPRLPRPRPRPELLPRP  -0.0102
71. RRIRYRPPRLPRPRPRPKGLPRP  -0.0102
72. RRIRRRPPRLPRPRPRPYQGPRP  -0.00892
73. RRIRDRPPRLPRPRPRPDVKPRP  -0.00748
74. RRIRMRPPRLPRPRPRPRTYPRP  -0.00485
75. RRIRTRPPRLPRPRPRPDPYPRP  0.001
76. RRIRNRPPRLPRPRPRPFTRPRP  0.00645
77. RRIRERPPRLPRPRPRPTFGPRP  0.0107
78. RRIRRRPPRLPRPRPRPIKPPRP  0.0148
79. RRIRNRPPRLPRPRPRPKMEPRP  0.015
80. RRIRMRPPRLPRPRPRPWVLPRP  0.0155
81. RRIRTRPPRLPRPRPRPVNQPRP  0.0163
82. RRIRRRPPRLPRPRPRPGLHPRP  0.0196
83. RRIRQRPPRLPRPRPRPLERPRP  0.0228
84. RRIRGRPPRLPRPRPRPKHLPRP  0.0257
85. RRIRGRPPRLPRPRPRPYQWPRP  0.0268
86. RRIRSRPPRLPRPRPRPADMPRP  0.0296
87. RRIRDRPPRLPRPRPRPMKYPRP  0.0311
88. RRIRWRPPRLPRPRPRPSTDPRP  0.0398
89. RRIRFRPPRLPRPRPRPLDTPRP  0.0445
90. RRIRERPPRLPRPRPRPGSFPRP  0.0492
91. RRIRFRPPRLPRPRPRPAGFPRP  0.0553
92. RRIRDRPPRLPRPRPRPLEYPRP  0.061
93. RRIRKRPPRLPRPRPRPEHGPRP  0.0647
94. RRIRKRPPRLPRPRPRPCPTPRP  0.0658
95. RRIRGRPPRLPRPRPRPCQNPRP  0.0697
96. RRIRPRPPRLPRPRPRPPWCPRP  0.0891
97. RRIRERPPRLPRPRPRPAERPRP  0.104
98. RRIRSRPPRLPRPRPRPRAQPRP  0.106
99. RRIRVRPPRLPRPRPRPRRNPRP  0.108
100. RRIRSRPPRLPRPRPRPRMQPRP  0.108
101. RRIRRRPPRLPRPRPRPSQDPRP  0.112
102. RRIRHRPPRLPRPRPRPAYCPRP  0.119
103. RRIRERPPRLPRPRPRPKEKPRP  0.121
104. RRIRYRPPRLPRPRPRPQWGPRP  0.122
105. RRIRSRPPRLPRPRPRPVDVPRP  0.126
106. RRIRNRPPRLPRPRPRPQPIPRP  0.14
107. RRIRDRPPRLPRPRPRPPQLPRP  0.143
108. RRIRGRPPRLPRPRPRPNDHPRP  0.143
109. RRIRTRPPRLPRPRPRPAAMPRP  0.154
110. RRIRGRPPRLPRPRPRPKTWPRP  0.155
111. RRIRYRPPRLPRPRPRPMWPPRP  0.158
112. RRIRMRPPRLPRPRPRPCPRPRP  0.167
113. RRIRTRPPRLPRPRPRPEDNPRP  0.168
114. RRIRGRPPRLPRPRPRPSCHPRP  0.175
115. RRIRWRPPRLPRPRPRPFHWPRP  0.175
116. RRIRMRPPRLPRPRPRPMLQPRP  0.196
117. RRIRVRPPRLPRPRPRPALHPRP  0.202
118. RRIRWRPPRLPRPRPRPTHMPRP  0.206
119. RRIRSRPPRLPRPRPRPERVPRP  0.21
120. RRIRGRPPRLPRPRPRPFPIPRP  0.21
121. RRIRHRPPRLPRPRPRPSRQPRP  0.212
122. RRIRERPPRLPRPRPRPLEEPRP  0.239
123. RRIRRRPPRLPRPRPRPRQHPRP  0.288
124. RRIRGRPPRLPRPRPRPMLYPRP  0.322
125. RRIRKRPPRLPRPRPRPVLFPRP  0.327
126. RRIRDRPPRLPRPRPRPPVDPRP  0.361
127. RRIRARPPRLPRPRPRPGKRPRP  0.374
128. RRIRARPPRLPRPRPRPGHGPRP  0.377
129. RRIRSRPPRLPRPRPRPTRTPRP  0.386
130. RRIRWRPPRLPRPRPRPDHAPRP  0.391
131. RRIRARPPRLPRPRPRPTFWPRP  0.445
132. RRIRWRPPRLPRPRPRPLLHPRP  0.493
133. RRIRPRPPRLPRPRPRPGHVPRP  0.564
134. RRIRMRPPRLPRPRPRPPMMPRP  0.609
135. RRIRGRPPRLPRPRPRPKEHPRP  0.627
136. RRIRHRPPRLPRPRPRPRDWPRP  0.645
137. RRIRHRPPRLPRPRPRPPRPPRP  0.664
138. RRIRGRPPRLPRPRPRPNAFPRP  0.665
139. RRIRSRPPRLPRPRPRPECVPRP  0.673
140. RRIRFRPPRLPRPRPRPGNWPRP  0.724
141. RRIRWRPPRLPRPRPRPRKRPRP  0.726
142. RRIRCRPPRLPRPRPRPTPHPRP  0.821
143. RRIRKRPPRLPRPRPRPTRGPRP  0.857
144. RRIRLRPPRLPRPRPRPGLWPRP  0.863
145. RRIRWRPPRLPRPRPRPPGRPRP  0.877
146. RRIRFRPPRLPRPRPRPRTKPRP  0.947
147. RRIRGRPPRLPRPRPRPKPNPRP  1.05
148. RRIRGRPPRLPRPRPRPDQEPRP  1.05
149. RRIRGRPPRLPRPRPRPGCQPRP  1.17
150. RRIRGRPPRLPRPRPRPHATPRP  1.35
